Source: FireProtDB (doi:10.1021/bi9901228)

B1: Lysozyme C, P61626 (parent)
chain: MKALIVLGLVLLSVTVQGKVFERCELARTLKRLGMDGYRGISLANWMCLAKWESGYNTRATNYNAGDRSTDYGIFQINSRYWCNDGKTPGAVNACHLSCSALLQDNIADAVACAKRVVRDPQGIRAWVAWRNRCQNRDVRQYVQGCGV

Variants of: B1
Settings: Homo sapiens; pH 2.51; Thermal; DSC; glycine 0.05 M; reversible: yes; structure 1LZ1; whole UniProt chain shown

| Variant | Tm [°C] | heat capacity change of unfolding [kcal/mol/K] | unfolding enthalpy (calorimetric) [kcal/mol] | unfolding enthalpy (van 't Hoff) [kcal/mol] |
| --- | --- | --- | --- | --- |
| S69A | 61 | 1.48 | 106 | 113 |
| S100A | 62.5 | 1.41 | 111 | 117 |
| S79A | 57 | 1.1 | 99 | 103 |

Same assay, conditions: Homo sapiens; pH 2.69; Thermal; DSC; glycine 0.05 M; reversible: yes; structure 1LZ1; whole UniProt chain shown

| Variant | Tm [°C] | heat capacity change of unfolding [kcal/mol/K] | unfolding enthalpy (calorimetric) [kcal/mol] | unfolding enthalpy (van 't Hoff) [kcal/mol] |
| --- | --- | --- | --- | --- |
| S69A | 64.2 | 1.43 | 111 | 118 |
| S98A | 66.2 | 1.34 | 119 | 126 |

Same assay, conditions: Homo sapiens; pH 2.7; Thermal; DSC; glycine 0.05 M; reversible: yes; structure 1LZ1; whole UniProt chain shown

| Variant | Tm [°C] | change of melting temperature, mutant - wild type (higher = more stable) [°C] | heat capacity change of unfolding [kcal/mol/K] | unfolding enthalpy (calorimetric) [kcal/mol] |
| --- | --- | --- | --- | --- |
| S69A | 64.2 | -0.7 | 1.43 | 112 |
| S100A | 66 | 1.1 | 1.27 | 114 |
| S42A | 63.3 | -1.6 | 1.51 | 110 |
| S54A | 61.4 | -3.5 | 1.31 | 109 |
| S79A | 60.6 | -4.3 | 1.27 | 109 |
| S98A | 66.3 | 1.4 | 1.43 | 116 |

Same assay, conditions: Homo sapiens; pH 2.86; Thermal; DSC; glycine 0.05 M; reversible: yes; structure 1LZ1; whole UniProt chain shown

| Variant | Tm [°C] | heat capacity change of unfolding [kcal/mol/K] | unfolding enthalpy (calorimetric) [kcal/mol] | unfolding enthalpy (van 't Hoff) [kcal/mol] |
| --- | --- | --- | --- | --- |
| S69A | 66.7 | 1.55 | 115 | 121 |

Same assay, conditions: Homo sapiens; pH 3.11; Thermal; DSC; glycine 0.05 M; reversible: yes; structure 1LZ1; whole UniProt chain shown

| Variant | Tm [°C] | heat capacity change of unfolding [kcal/mol/K] | unfolding enthalpy (calorimetric) [kcal/mol] | unfolding enthalpy (van 't Hoff) [kcal/mol] |
| --- | --- | --- | --- | --- |
| S69A | 70.8 | 1.36 | 120 | 126 |
| S98A | 73.6 | 1.39 | 129 | 135 |

Same assay, conditions: Homo sapiens; pH 2.85; Thermal; DSC; glycine 0.05 M; reversible: yes; structure 1LZ1; whole UniProt chain shown

| Variant | Tm [°C] | heat capacity change of unfolding [kcal/mol/K] | unfolding enthalpy (calorimetric) [kcal/mol] | unfolding enthalpy (van 't Hoff) [kcal/mol] |
| --- | --- | --- | --- | --- |
| S100A | 68.9 | 1.2 | 120 | 128 |
| S98A | 69.1 | 1.34 | 122 | 129 |

Same assay, conditions: Homo sapiens; pH 3.12; Thermal; DSC; glycine 0.05 M; reversible: yes; structure 1LZ1; whole UniProt chain shown

| Variant | Tm [°C] | heat capacity change of unfolding [kcal/mol/K] | unfolding enthalpy (calorimetric) [kcal/mol] | unfolding enthalpy (van 't Hoff) [kcal/mol] |
| --- | --- | --- | --- | --- |
| S100A | 73.5 | 1.41 | 125 | 133 |

Same assay, conditions: Homo sapiens; pH 2.46; Thermal; DSC; glycine 0.05 M; reversible: yes; structure 1LZ1; whole UniProt chain shown

| Variant | Tm [°C] | heat capacity change of unfolding [kcal/mol/K] | unfolding enthalpy (calorimetric) [kcal/mol] | unfolding enthalpy (van 't Hoff) [kcal/mol] |
| --- | --- | --- | --- | --- |
| S42A | 58.8 | 1.46 | 101 | 105 |

Same assay, conditions: Homo sapiens; pH 2.66; Thermal; DSC; glycine 0.05 M; reversible: yes; structure 1LZ1; whole UniProt chain shown

| Variant | Tm [°C] | heat capacity change of unfolding [kcal/mol/K] | unfolding enthalpy (calorimetric) [kcal/mol] | unfolding enthalpy (van 't Hoff) [kcal/mol] |
| --- | --- | --- | --- | --- |
| S42A | 62.5 | 1.67 | 106 | 111 |

Same assay, conditions: Homo sapiens; pH 2.82; Thermal; DSC; glycine 0.05 M; reversible: yes; structure 1LZ1; whole UniProt chain shown

| Variant | Tm [°C] | heat capacity change of unfolding [kcal/mol/K] | unfolding enthalpy (calorimetric) [kcal/mol] | unfolding enthalpy (van 't Hoff) [kcal/mol] |
| --- | --- | --- | --- | --- |
| S42A | 65.7 | 1.55 | 112 | 117 |

Same assay, conditions: Homo sapiens; pH 3.09; Thermal; DSC; glycine 0.05 M; reversible: yes; structure 1LZ1; whole UniProt chain shown

| Variant | Tm [°C] | heat capacity change of unfolding [kcal/mol/K] | unfolding enthalpy (calorimetric) [kcal/mol] | unfolding enthalpy (van 't Hoff) [kcal/mol] |
| --- | --- | --- | --- | --- |
| S42A | 70.3 | 1.41 | 118 | 123 |
| S54A | 68.7 | 1.22 | 114 | 119 |

Same assay, conditions: Homo sapiens; pH 2.47; Thermal; DSC; glycine 0.05 M; reversible: yes; structure 1LZ1; whole UniProt chain shown

| Variant | Tm [°C] | heat capacity change of unfolding [kcal/mol/K] | unfolding enthalpy (calorimetric) [kcal/mol] | unfolding enthalpy (van 't Hoff) [kcal/mol] |
| --- | --- | --- | --- | --- |
| S54A | 57.1 | 1.31 | 98.5 | 103 |

Same assay, conditions: Homo sapiens; pH 2.67; Thermal; DSC; glycine 0.05 M; reversible: yes; structure 1LZ1; whole UniProt chain shown

| Variant | Tm [°C] | heat capacity change of unfolding [kcal/mol/K] | unfolding enthalpy (calorimetric) [kcal/mol] | unfolding enthalpy (van 't Hoff) [kcal/mol] |
| --- | --- | --- | --- | --- |
| S54A | 60.8 | 1.31 | 104 | 109 |

Same assay, conditions: Homo sapiens; pH 2.84; Thermal; DSC; glycine 0.05 M; reversible: yes; structure 1LZ1; whole UniProt chain shown

| Variant | Tm [°C] | heat capacity change of unfolding [kcal/mol/K] | unfolding enthalpy (calorimetric) [kcal/mol] | unfolding enthalpy (van 't Hoff) [kcal/mol] |
| --- | --- | --- | --- | --- |
| S54A | 64 | 1.24 | 107 | 113 |
| S79A | 63.6 | 1.15 | 107 | 111 |

Same assay, conditions: Homo sapiens; pH 3.1; Thermal; DSC; glycine 0.05 M; reversible: yes; structure 1LZ1; whole UniProt chain shown

| Variant | Tm [°C] | heat capacity change of unfolding [kcal/mol/K] | unfolding enthalpy (calorimetric) [kcal/mol] | unfolding enthalpy (van 't Hoff) [kcal/mol] |
| --- | --- | --- | --- | --- |
| S79A | 68.3 | 1.31 | 113 | 118 |

Same assay, conditions: Homo sapiens; pH 2.5; Thermal; DSC; glycine 0.05 M; reversible: yes; structure 1LZ1; whole UniProt chain shown

| Variant | Tm [°C] | heat capacity change of unfolding [kcal/mol/K] | unfolding enthalpy (calorimetric) [kcal/mol] | unfolding enthalpy (van 't Hoff) [kcal/mol] |
| --- | --- | --- | --- | --- |
| S98A | 62.7 | 1.41 | 113 | 120 |
